Holding throughout (experiment): fluorescence polarisation; 37 °C, after the 25 °C reading ramped over 7 min to 37 °C and 2 min incubation; unlabeled Rb^P against 1.5 nM TMR-E2F1^TD or 7.5 nM TMR-E7^LxCxE; 25 mM Tris pH 8.0, 200 mM NaCl, 1 mM DTT, 0.1% Tween-20; apparent Kd
Common to all, as to details: both partners purified
For orientation: Polarisation of emitted light reports the rotation of a fluorescent probe.

One test deals with T1, Rb^P R656Q (human, UniProt P06400 380-788, R656Q).
T1 construct: also called variant 48
T1 sequence (looked up): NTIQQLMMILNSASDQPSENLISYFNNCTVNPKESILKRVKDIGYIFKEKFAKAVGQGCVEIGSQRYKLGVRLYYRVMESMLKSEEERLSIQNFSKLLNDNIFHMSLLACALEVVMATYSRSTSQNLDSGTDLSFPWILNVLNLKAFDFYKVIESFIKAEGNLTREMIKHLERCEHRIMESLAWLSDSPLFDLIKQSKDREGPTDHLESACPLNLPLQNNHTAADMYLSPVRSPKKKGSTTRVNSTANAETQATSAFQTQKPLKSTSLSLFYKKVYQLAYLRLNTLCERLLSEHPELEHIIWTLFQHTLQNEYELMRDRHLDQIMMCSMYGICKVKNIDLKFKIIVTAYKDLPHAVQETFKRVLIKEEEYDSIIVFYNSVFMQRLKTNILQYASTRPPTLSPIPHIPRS

The next test concerns the target T2, Rb^P Q504E (human, UniProt P06400 380-788, Q504E).
T2 construct: also called variant 19
T2 sequence (looked up): T1 sequence (looked up) with Q125E, Q277R

Another test has as its target T3, Rb^P H673Y (human, UniProt P06400 380-788, H673Y).
T3 construct: also called variant 55
T3 sequence (looked up): T1 sequence (looked up) with Q277R, H294Y

In a further test the target is T4, Rb^P Q444L (human, UniProt P06400 380-788, Q444L).
T4 construct: also called variant 3
T4 sequence (looked up): T1 sequence (looked up) with Q65L, Q277R

In the next test the target is T5, Rb^P Q444R (human, UniProt P06400 380-788, Q444R).
T5 construct: also called variant 4
T5 sequence (looked up): T1 sequence (looked up) with Q65R, Q277R

Numbering of substitutions follows the chain as printed. Names and notes keep the numbering of the source. No end group written: not given here. TMR = tetramethyl rhodamine dye

B1: TMR-E2F1^TD, peptide of the E2F1 transactivation domain (peptide)
peptide: {TMR}-GEGIRDLFDCDFGDLTPLD
notes: also called E2F^TD; source: synthetic peptide, bought: GenScript
With B1, the Kd with Rb^P R656Q was 325 nM; in the test with Rb^P Q504E it was 33 nM; in the test with Rb^P H673Y, 66 nM; in the test with Rb^P Q444L it was 30 nM; with Rb^P Q444R, 25 nM.

B2: TMR-E7^LxCxE, LxCxE peptide of the E7 oncoprotein from HPV (peptide)
peptide: DLYCYEQLN
modifications: also: TMR label, position not given here
notes: source: synthetic peptide, bought: GenScript
Consider B2, for which the Kd with Rb^P R656Q was determined as 14 nM; with Rb^P Q504E, 11 nM; with Rb^P H673Y, 29 nM; with Rb^P Q444L it was 11 nM; in the test with Rb^P Q444R, 17 nM.

The record behind these values is paper PMC11931385, “Structural and functional analysis of cancer-associated missense variants in the retinoblastoma protein pocket domain” (The Journal of Biological Chemistry, 2025).
